Measured values as given in IntAct's records for PubMed 23624404.

B1: DNA repair protein RAD51 (Saccharomyces cerevisiae), P25454 (parent)
chain: MSQVQEQHISESQLQYGNGSLMSTVPADLSQSVVDGNGNGSSEDIEATNGSGDGGGLQEQAEAQGEMEDEAYDEAALGSFVPIEKLQVNGITMADVKKLRESGLHTAEAVAYAPRKDLLEIKGISEAKADKLLNEAARLVPMGFVTAADFHMRRSELICLTTGSKNLDTLLGGGVETGSITELFGEFRTGKSQLCHTLAVTCQIPLDIGGGEGKCLYIDTEGTFRPVRLVSIAQRFGLDPDDALNNVAYARAYNADHQLRLLDAAAQMMSESRFSLIVVDSVMALYRTDFSGRGELSARQMHLAKFMRALQRLADQFGVAVVVTNQVVAQVDGGMAFNPDPKKPIGGNIMAHSSTTRLGFKKGKGCQRLCKVVDSPCLPEAECVFAIYEDGVGDPREEDE

Variants of: B1
Conditions: with smt3_yeast SMT3, Q12306
Sequence of smt3_yeast SMT3, Q12306 (Q12306 whole entry): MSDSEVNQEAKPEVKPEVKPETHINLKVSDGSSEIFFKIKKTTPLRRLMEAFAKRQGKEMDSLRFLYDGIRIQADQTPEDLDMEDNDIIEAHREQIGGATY

effect of a mutation on the interaction	Variant
disrupting interaction strength	V321A;V322A

Variants of: B1
Conditions: with rad52_yeast RAD52, P06778

effect of a mutation on the interaction	Variant
decreasing interaction strength	V321A;V322A
